Measurements as given in patent publication US20170022503A1 (NATIONAL UNIVERSITY OF SINGAPORE, published 2017).

B1: flag-tagged WARS2(L53F) mutant (human) (enzyme)
chain: LHKGSAAAPALQKDSKKRVFSGIQPTGILHLGNYFGAIESWVRLQDEYDSVLYSIVDLHSITVPQDPAVLRQSILDMTAVLLACGINPEKSILFQQSQVSEHTQLSWILSCMVRLPRLQHLHQWKAKTTKQKHDGTVGLLTYPVLQAADILLYKSTHVPVGEDQVQHMELVQDLAQGFNKKYGEFFPVPESILTSMKKVKSLRDPSAKMSKSDPDKLATVRITDSPEEIVQKFRKAVTDFTSEVTYDPAGRAGVSNIVAVHAAVTGLSVEEVVRRSAGMNTARYKLAVADAVIEKFAPIKREIEKLKLDKDHLEKVLQIGSAKAKELAYTVCQEVKKLVGFL
notes: also called mutant WARS2; not shown: C-terminal myc-DDK (flag) tag of the Origene construct

Experiments:
Test in all cases: co-IP of flag-tagged protein from HUVEC cells, blot
[1] = molecular target: Ribosomal Protein L 13a (RPL13a) (human, UniProt P40429 2-203)
[2] = molecular target: T1, glutamyl-prolyl tRNA synthetase (EPRS) (human, UniProt P07814 1-1512)
T1 construct: GAIT complex component; endogenous protein of HUVEC cells
T1 sequence (P07814 whole entry): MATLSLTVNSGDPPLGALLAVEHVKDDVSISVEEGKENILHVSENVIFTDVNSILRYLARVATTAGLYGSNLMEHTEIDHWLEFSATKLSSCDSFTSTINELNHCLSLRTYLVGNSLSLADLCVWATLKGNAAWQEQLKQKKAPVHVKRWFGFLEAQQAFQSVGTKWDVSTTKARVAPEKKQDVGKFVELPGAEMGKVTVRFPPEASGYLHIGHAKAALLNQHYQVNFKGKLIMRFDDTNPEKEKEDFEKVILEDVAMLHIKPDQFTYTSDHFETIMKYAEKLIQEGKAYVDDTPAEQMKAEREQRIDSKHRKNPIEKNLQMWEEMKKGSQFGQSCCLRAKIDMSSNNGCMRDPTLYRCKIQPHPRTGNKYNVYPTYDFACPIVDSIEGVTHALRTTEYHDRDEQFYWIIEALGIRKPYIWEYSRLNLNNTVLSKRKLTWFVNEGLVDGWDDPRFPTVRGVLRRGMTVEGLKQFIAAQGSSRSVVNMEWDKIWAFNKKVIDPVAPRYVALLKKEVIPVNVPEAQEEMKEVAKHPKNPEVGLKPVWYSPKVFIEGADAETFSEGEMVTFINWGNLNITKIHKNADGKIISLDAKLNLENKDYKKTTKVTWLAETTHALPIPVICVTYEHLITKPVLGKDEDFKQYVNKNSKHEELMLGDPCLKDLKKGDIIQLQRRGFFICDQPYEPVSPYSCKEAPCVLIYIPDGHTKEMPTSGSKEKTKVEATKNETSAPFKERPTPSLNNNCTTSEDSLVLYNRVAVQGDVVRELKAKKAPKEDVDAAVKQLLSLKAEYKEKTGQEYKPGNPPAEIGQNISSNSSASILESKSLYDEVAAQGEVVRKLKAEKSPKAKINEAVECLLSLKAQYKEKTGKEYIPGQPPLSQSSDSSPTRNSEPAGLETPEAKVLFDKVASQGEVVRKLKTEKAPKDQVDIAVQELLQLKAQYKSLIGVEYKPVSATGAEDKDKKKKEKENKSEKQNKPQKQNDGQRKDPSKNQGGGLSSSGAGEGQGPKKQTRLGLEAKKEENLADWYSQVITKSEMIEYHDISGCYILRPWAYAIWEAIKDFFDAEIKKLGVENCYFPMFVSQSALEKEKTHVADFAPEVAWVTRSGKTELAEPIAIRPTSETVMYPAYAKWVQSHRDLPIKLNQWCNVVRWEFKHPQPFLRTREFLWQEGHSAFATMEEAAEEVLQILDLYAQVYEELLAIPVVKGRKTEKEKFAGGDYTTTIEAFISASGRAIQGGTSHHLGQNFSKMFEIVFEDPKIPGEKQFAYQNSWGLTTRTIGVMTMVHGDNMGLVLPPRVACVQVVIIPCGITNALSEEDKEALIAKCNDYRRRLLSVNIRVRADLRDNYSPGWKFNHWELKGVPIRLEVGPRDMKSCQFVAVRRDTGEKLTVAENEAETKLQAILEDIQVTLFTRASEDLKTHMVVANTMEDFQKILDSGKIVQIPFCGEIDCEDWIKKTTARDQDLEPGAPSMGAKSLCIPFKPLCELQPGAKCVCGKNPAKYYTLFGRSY

[3] = molecular target: B1

Row | Binder | binding result [1] | binding result [2] | binding result [3]
1 | B1 | no binding | no binding | –
2 | glyceraldehyde-3-phosphate dehydrogenase (GAPDH) (enzyme, GAIT complex component; endogenous protein of HUVEC cells) not shown | – | – | no binding
